How the values were obtained:
CtNDT [1] = target: T1, CtNDT (Chroococcidiopsis thermalis, UniProt K9TVX3, V85S); assay: HPLC initial rates, Michaelis-Menten; format: biochemical; conditions: adenine as nucleobase acceptor
T1 construct: gene Chro_1188; homotetramer; residues 111 and 118 of the neighbouring subunit complete the site; expression host and tags only in supplement

CtNDT [2] = target: T2, CtNDT (Chroococcidiopsis thermalis, UniProt K9TVX3, A9S); assay: HPLC initial rates, Michaelis-Menten; format: biochemical; conditions: adenine as nucleobase acceptor
T2 construct: gene Chro_1188; homotetramer; residues 111 and 118 of the neighbouring subunit complete the site; expression host and tags only in supplement
T2 sequence (K9TVX3 entry or part of it A9S): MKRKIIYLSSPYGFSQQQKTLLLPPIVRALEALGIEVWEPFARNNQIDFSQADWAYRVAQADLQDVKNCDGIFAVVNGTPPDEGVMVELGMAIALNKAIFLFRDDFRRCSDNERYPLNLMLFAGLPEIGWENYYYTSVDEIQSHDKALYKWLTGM

CtNDT [3] = target: T3, CtNDT (Chroococcidiopsis thermalis, UniProt K9TVX3, A9S/Y7F); assay: binding assay (details in supplement)
T3 construct: gene Chro_1188; homotetramer; residues 111 and 118 of the neighbouring subunit complete the site; expression host and tags only in supplement

CtNDT [4] = target: T4, CtNDT (Chroococcidiopsis thermalis, UniProt K9TVX3, Y7F); assay: X-ray crystal structure; format: binding; conditions: active site; ligand placed in 2 of 4 protomers, less defined density
T4 construct: gene Chro_1188; homotetramer; residues 111 and 118 of the neighbouring subunit complete the site; expression host and tags only in supplement

CtNDT [5] = target: T5, CtNDT (Chroococcidiopsis thermalis, UniProt K9TVX3); assay: steady-state kinetics (details in supplement); format: biochemical; conditions: nucleobase acceptor; kcat/KM only said to be similar
T5 construct: gene Chro_1188; homotetramer; residues 111 and 118 of the neighbouring subunit complete the site; expression host and tags only in supplement

CtNDT [6] = target: T6, CtNDT (Chroococcidiopsis thermalis, UniProt K9TVX3, Y7F/A9S); assay: X-ray crystal structure; conditions: active site, ribosyl-binding pocket
T6 construct: gene Chro_1188; homotetramer; residues 111 and 118 of the neighbouring subunit complete the site; expression host and tags only in supplement

[7] = substrate: OC[C@H]1O[C@@H](n2cnc3c(O)ncnc32)[C@H](O)[C@@H]1O; assay: HPLC initial rates, Michaelis-Menten; format: biochemical, Chroococcidiopsis thermalis; conditions: adenine as nucleobase acceptor
[8] = substrate: OC[C@H]1O[C@@H](n2cnc3c(O)ncnc32)[C@H](O)[C@@H]1O; assay: HPLC initial rates, Michaelis-Menten; format: biochemical, Chroococcidiopsis thermalis; conditions: adenine as nucleobase acceptor; remark: listed apart in the source
From the text: HPLC initial rates, Michaelis-Menten on CtNDT | evaluated with inosine as the sugar donor and adenine as the […]

T1 sequence (K9TVX3 entry or part of it V85S): as the sequence (K9TVX3 entry or part of it A9S) above, with S9A, V85S counted along it

O=c1[nH]cnc2c1ncn2[C@@H]1O[C@H](CO)[C@@H](O)[C@H]1O [inosine]
K M-inosine (CtNDT [1]): These mutants had modest changes in K M‑inosine | K M-inosine (CtNDT [2]): These mutants had modest changes in K M‑inosine

O=c1[nH]cnc2c([C@@H]3N[C@H](CO)[C@@H](O)[C@H]3O)c[nH]c12 [Immucillin-H]
Kd (CtNDT [3]): 590 µM | X-ray crystal structure (CtNDT [4]): 9EMWCtNDTY7F bound to ImmH

O=c1[nH]c(=O)c2[nH]cnc2[nH]1 [xanthine]
k cat/K M (CtNDT [5]): uric acid, xanthine, and hypoxanthine, which have similar k cat/K M values

O=c1[nH]cnc2nc[nH]c12 [hypoxanthine]
k cat/K M (CtNDT [5]): uric acid, xanthine, and hypoxanthine, which have similar k cat/K M values

Nc1ncnc2c1ncn2[C@@H]1O[C@H](CO)C[C@H]1O [cordycepin]
X-ray crystal structure (CtNDT [6]): 9EMXCtNDTY7F‑A9S bound to Cordycepin

B1: CtNDT (Chroococcidiopsis thermalis PCC 7203; Y7A) (protein)
chain: MKRKIIALASPYGFSQQQKTLLLPPIVRALEALGIEVWEPFARNNQIDFSQADWAYRVAQADLQDVKNCDGIFAVVNGTPPDEGVMVELGMAIALNKAIFLFRDDFRRCSDNERYPLNLMLFAGLPEIGWENYYYTSVDEIQSHDKALYKWLTGM
notes: homotetramer; residues 111 and 118 of the neighbouring subunit complete the site; expression host and tags only in supplement
Km [7]: 530 ± 10 µM | kcat [7]: 0.02 ± 0.01 s⁻¹

B2: CtNDT (Chroococcidiopsis thermalis PCC 7203) (protein)
chain: MKRKIIYLASPYGFSQQQKTLLLPPIVRALEALGIEVWEPFARNNQIDFSQADWAYRVAQADLQDVKNCDGIFAVVNGTPPDEGVMVELGMAIALNKAIFLFRDDFRRCSDNERYPLNLMLFAGLPEIGWENYYYTSVDEIQSHDKALYKWLTGM
notes: as for B1
Km [8]: 920 ± 240 µM | kcat [8]: 0.01 ± 0.01 s⁻¹

B3: CtNDT (Chroococcidiopsis thermalis PCC 7203; Y7F) (protein)
chain: MKRKIIFLASPYGFSQQQKTLLLPPIVRALEALGIEVWEPFARNNQIDFSQADWAYRVAQADLQDVKNCDGIFAVVNGTPPDEGVMVELGMAIALNKAIFLFRDDFRRCSDNERYPLNLMLFAGLPEIGWENYYYTSVDEIQSHDKALYKWLTGM
notes: as for B1
Km [7]: 710 ± 170 µM | kcat [7]: 0.03 ± 0.01 s⁻¹

B4: CtNDT (Chroococcidiopsis thermalis PCC 7203; A9S/Y7F) (protein)
chain: MKRKIIFLSSPYGFSQQQKTLLLPPIVRALEALGIEVWEPFARNNQIDFSQADWAYRVAQADLQDVKNCDGIFAVVNGTPPDEGVMVELGMAIALNKAIFLFRDDFRRCSDNERYPLNLMLFAGLPEIGWENYYYTSVDEIQSHDKALYKWLTGM
notes: as for B1
Km [7]: 620 µM

B5: CtNDT (Chroococcidiopsis thermalis PCC 7203; D62N) (protein)
chain: MKRKIIYLASPYGFSQQQKTLLLPPIVRALEALGIEVWEPFARNNQIDFSQADWAYRVAQANLQDVKNCDGIFAVVNGTPPDEGVMVELGMAIALNKAIFLFRDDFRRCSDNERYPLNLMLFAGLPEIGWENYYYTSVDEIQSHDKALYKWLTGM
notes: as for B1
Km [7]: 800 ± 90 µM | kcat [7]: 0.002 ± 0.001 s⁻¹
